According to PMC4552671:

Biological target: Urokinase plasminogen activator surface receptor (uPAR) on metastatic KHOS osteosarcoma cells (human (endogenous in KHOS)) (UniProt Q03405)
UniProt Q03405, sequence (Q03405 other isoform, or with tags, fused parts or gaps): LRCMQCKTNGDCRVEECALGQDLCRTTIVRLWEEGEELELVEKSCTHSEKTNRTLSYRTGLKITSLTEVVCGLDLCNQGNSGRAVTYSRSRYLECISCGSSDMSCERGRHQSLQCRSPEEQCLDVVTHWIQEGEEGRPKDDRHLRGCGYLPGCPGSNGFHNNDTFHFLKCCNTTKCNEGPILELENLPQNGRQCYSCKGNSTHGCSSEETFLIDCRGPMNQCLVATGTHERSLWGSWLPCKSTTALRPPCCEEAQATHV

- increase in migration of metastatic KHOS cells over basal level (Transwell, 24 h) with 0.5 and 1.0 ug/mL rh-uPA: 166%
Substance: recombinant human urokinase plasminogen activator (rh-uPA), high molecular weight form
